As a reminder, the Kd is the free concentration of one partner at which half of the binding sites on the other are occupied at equilibrium, for simple one-to-one binding. A low value points to a tighter complex.

Among the data in PMC3089636 are binding and Kd values, retold here.

This series addresses T1, Fur (ferric uptake regulator) (Salmonella enterica (strain for cloning not stated; SL1344/SV5015 used in the paper)) (UniProt A0A0H3NJ13).
T1 sequence: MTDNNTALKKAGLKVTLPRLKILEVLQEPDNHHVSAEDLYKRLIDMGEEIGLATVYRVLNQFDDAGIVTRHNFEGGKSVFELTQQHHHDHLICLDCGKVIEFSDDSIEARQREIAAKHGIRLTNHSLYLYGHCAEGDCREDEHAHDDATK
Description: EMSA. To be noted: EMSA: 10 mM Bis-Tris/borate pH 7.5, 5% glycerol, 1 mM MgCl2, 40 mM KCl, 100 ug/ml BSA, 0.2 mg/ml salmon sperm DNA, 100 uM MnCl2, 20 nM probe, 10 min 37 C …. A general note: Mobility shift assays separate free from complexed probe on a gel.

Consider “AGTTATCTGCGGCAGGACGCTGATGACTATTACTTACAAAGGTTACATTTTCCATATTATCCCTTTGTTGATGTTATTTTAATGTTCCTTACTGGTATCCTACTGA (double strand) [FrgC]”, for which the binding result is “no binding”.
With “AGTTATCTGCGGCAGGACGCTGATGACTATTACTTACAAAGGTTACATTTTCCATATTATCCCTTTGTTGATGTTATTTTAATGTTCCTTACTGGTATCCTACTGAAAAAATCTGAGTTGTAAATGCTCTTTATTAGCGTGTGTTGGCAATGGTCTGATTGTTACACCAAAAGAACCCAAATTTGGGTAATTTATCTACAGTAGTTTAAGCCCCAATGGGGATGATGGTTCTTTTAATATGTGTTGAGACGCATTATACA (double strand) [FrgB]”, the binding result was “no binding”.
Substance FrgA (PhilD) gave a Kd of 4.5 nM.
